# Like-named read-outs stand apart in the source and are kept apart here.
# T1: PTRAMP–CSS heterodimer (disulfide-linked PfPTRAMP 42–309 and PfCSS 20–290) (P. falciparum)
# T1 chain 1: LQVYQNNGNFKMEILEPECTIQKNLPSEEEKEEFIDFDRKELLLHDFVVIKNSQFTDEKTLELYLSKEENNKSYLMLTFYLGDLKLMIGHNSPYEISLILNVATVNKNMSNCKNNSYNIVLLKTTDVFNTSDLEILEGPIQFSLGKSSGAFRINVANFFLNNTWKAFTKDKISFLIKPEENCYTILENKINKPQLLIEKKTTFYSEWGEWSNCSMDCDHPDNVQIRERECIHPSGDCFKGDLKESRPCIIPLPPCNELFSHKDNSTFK
# T1 chain 2: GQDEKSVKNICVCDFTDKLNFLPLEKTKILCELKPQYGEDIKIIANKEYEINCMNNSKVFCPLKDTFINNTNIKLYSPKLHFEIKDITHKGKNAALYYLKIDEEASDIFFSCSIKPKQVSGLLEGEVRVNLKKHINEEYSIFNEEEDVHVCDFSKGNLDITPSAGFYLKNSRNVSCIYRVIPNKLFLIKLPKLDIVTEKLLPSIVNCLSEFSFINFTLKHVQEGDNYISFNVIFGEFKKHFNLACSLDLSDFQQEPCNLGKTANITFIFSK
# B1: anti-PfCSS nanobody F7 (VHH)
# VHH: QVQLQESGGGSVQVGDSLSLSCVASGRTFSTYALGWFRQAPGKEREFVAAASANGKVAPVTGSLRDRFSISRDNAKNTMYLQMNNLKPEDTAVYYCAAATGSEVFISTSPNVYDIWGQGTQVTVSS
# B2: anti-PfCSS nanobody C10 (VHH)
# VHH: QVQLQESGGGLVQAGGSLRLSCVASGRTFSNDAMGWFRQAPGKEREFVAAATRNGLGTGYADSVKGRFTISRDNAKNTVYLQMNSLKPEDTAVYYCAAASDAYYSNQRAAYDYWGQGTQVTVSS
# B3: anti-PfCSS nanobody B1 (VHH)
# VHH: QVQLQESGGGLVQYGGSLRLSCAASGRTFSSYSMGWFRQAPGKEREFVAAISWTGGNTYYLGSTEGRFTISRDNAKNTVFLQMNNLKPEDTAVYYCAAKGRGSSWPTYDYRGQGTQVTVSS
# B4: anti-PfCSS nanobody F1 (VHH)
# VHH: QVQLQESGGGLVQAGGPLRLSCVASGRTFSLHLMGWFRQAPGKEREFVAAISGSGGSTYYADSVKGRFTISRDNAKNTVYLQMNSLKPEDTAVYYCAADLENYMSTMLDGYNYWGQGTQVTVSS
# B5: anti-PfCSS nanobody C9 (VHH)
# VHH: QVQLQESGGGLVQAGDSLRLSCAASGRTFSSYAMGWFRQAPGKEREFVAAIAWNGGSTYYQDSVKGRFTISRDNAKNTVYLQMNSLKPEDTAVYYCAADDSYMSTMIHEYDYWGQGTQVTVSS
# B6: anti-PfCSS nanobody C1 (VHH)
# VHH: QVQLQESGGGLVQAGGSLRLSCAASGRSFSSYAMGWFSQAPGKEREFVAAISWNGGSTYYADSVKGRFTISRNNAKNTVYLQMNSLKPEDTAVYYCAATEPEIYISTMAEGYDYWGQGTQVTVSS
# B7: anti-PfCSS nanobody G5 (VHH)
# VHH: QVQLQESGGGLVQAGGSLRLSCVASGRTFSSYGMGWFRQAPGKEREFVSAISSDAASRHYANSVKGRFTISRDNAKNTVTLQMSSLTPEDTAVYYCAAVHAYYSNYDGHYDYWGQGTQVTVSS
# B8: anti-PfCSS nanobody E12 (VHH)
# VHH: QVQLQESGGGLVQAGGSLRLSCVASTRTFGNYAMAWFRQAPGKEREFVTTISASGGNTGAAPSVKGRFAISRDNAKNTVYLQMNSLKPEDTAVYYCAAASAYYSNDPARYTYWGQGTQVTVSS
# B9: anti-PfCSS nanobody B6 (VHH)
# VHH: QVQLQESGGGLVQAGGSLRLSCAASGRTFSRYAMGWFRQAPGKEREFVAAISWSGGSTTYADSVKGRFTISRDNAKNTVYLQMNSLKPEDTAVYYCAAGDFIIGNMASEYEYWGQGTQVTVSS
# B10: anti-PfPTRAMP nanobody H8 (VHH)
# VHH: QVQLQESGGGLVQPGGSLRLSCAASGFTFSSYWMYWVRQAPGKGLEWVSAINTGGGSTAYADSVKGRFTISRDNAKNTLYLQMNSLKSDDTAVYYCVKARGSSWSDRVFDYWGQGTQVTVSS
# B11: anti-PfCSS nanobody D1 (VHH)
# VHH: QVQLQESGGGLVQAGGSLRLSCAASGRTFSSLAMGWFRQPPGKEREFVAAISYSSGSTYYADSVKGRFTISRDNAKNTVYLQMNSLKPEDTAVYYCAVTPPDTYISTMGHEYDYWGQGTQVTVSS
# B12: anti-PfPTRAMP nanobody H10 (VHH)
# VHH: QVQLQESGGGLVQPGGSLRLSCAASGFTFDNYWMYWVRQAPGKGLEWVSAINTVGSHTYYADSVKGRFTISRDNAKNTLYLQMNSLKSEDTAVYYCAKGPWGFGTSGWGEMDYWGKGTQVTVSS
# B13: H2 nanobody (anti-PfCSS, non-inhibitory) (VHH)
# VHH: QVQLQESGGGLVQPGGSLRLSCAASGSIFSTNAMGWYRQAPGKQREQVATITSGSSTNYADSVKGRFTISRDNAKNTVYLQMNSLKPEDTAVYYCNAAGATIDLADFGSWGQGTQVTVSS
# B14: anti-PfCSS nanobody D9 (VHH)
# VHH: QVQLQESGGGLVQAGGSLTLSCAASGRTFSRSAMGWFRQAPGKGREFVAAISSGDTSTYYMDSVKGRFTISRDSSKNTVYLQMNNLRPEDTAVYYCAADPKSYITTMISEYDIWGQGTQVTVSS
# B15: PfCSS (residues 20 to 290) (domain or fragment)
# chain: T1 chain 2
# modifications: N-linked glycan on Asn88 (seen in the crystal structure)
# B16: D2 nanobody (anti-PfCSS, inhibitory) (VHH)
# VHH: QVQLQESGGGLVQAGGSLRLSCAASGRTFSSYAMGWFRQAPGKEREFVAAISYSGSNTYDADSVKGRFAISRDNAKNTVYLQMNSLKPEDTAVYYCAAAGVYSGTYTDTEFDYWGQGTQVTVSS
# Experiments:
# Assay in all cases: BLI
# [1] = target: T1, PTRAMP–CSS heterodimer …
# [2] = target: B15
# [3] = target: T2, PfPTRAMP (residues 42 to 309), PMX cleaved ectodomain (P. falciparum, UniProt Q8I5M8)
# [4] = target: T2, PfPTRAMP (residues 42 to 309), PMX …; remark: listed apart in the source
Binder,Kd [1],Kd [2],Kd [3],Kd [4]
B1,9.9 nM,5 nM,,
B2,12 nM,1.5 nM,,
B3,5.6 nM,4 nM,,
B4,9.9 nM,3.5 nM,,
B5,12 nM,6.5 nM,,
B6,6.8 nM,0.99 nM,,
B7,7 nM,4.9 nM,,
B8,16 nM,12 nM,,
B9,2.5 nM,0.66 nM,,
B10,410 nM,,400 nM,
B11,9 nM,2.6 nM,,
B12,390 nM,,530 nM,
B13,,0.88 nM,,
B14,11 nM,4.4 nM,,
B15,,,,19000 nM
B16,,4.4 nM,,

# From PMC9712106 (2022)
